Data on 2 molecules can be found in PMC11240526, “Method for B Cell Receptor Enrichment in Malignant B Cells” (Cancers, 2024).

In assay [1] the target is CD79a (human (endogenous in Raji)) (UniProt P11912). The assay is described as follows: co-IP; antibody to the bait (anti-CD79a, anti-CD79b or anti-IgM) with Protein G agarose beads; Raji membrane fraction solubilised in 1% Triton X-100 lysis buffer in PBS; overnight at 4 °C; bead eluate read by Western blot, band intensities normalised to protein load. A general note: Immunoblotting shows a protein as a band on a membrane.

The target in the next assay is T1, CD79a (human (endogenous in Raji), UniProt P11912 33-226).
T1 construct: CD79a (Igα), signalling subunit of the B cell receptor, human, endogenous in the Raji B lymphoblastoid cell line; the text prints P11912; also called Igα; Ig-alpha; source: endogenous, Raji cells, membrane fraction solubilised in Triton X-100 or DOC lysis buffer
T1 sequence (looked up): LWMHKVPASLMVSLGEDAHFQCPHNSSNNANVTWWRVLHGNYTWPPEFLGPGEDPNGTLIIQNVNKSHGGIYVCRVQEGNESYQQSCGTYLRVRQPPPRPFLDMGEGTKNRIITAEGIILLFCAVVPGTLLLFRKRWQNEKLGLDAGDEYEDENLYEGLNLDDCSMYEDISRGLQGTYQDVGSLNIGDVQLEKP
The description is as above. Particulars: partners not purified.

The molecule “membrane immunoglobulin M (mIgM) of Raji cells (complex)” had a fold enrichment in the bead eluate over input (band intensity normalised to protein load) in assay [1] of 30 fold.

B1: CD79b (natural protein, human (endogenous in Raji), UniProt P40259 29-229, looked up)
chain: ARSEDRYRNPKGSACSRIWQSPRFIARKRGFTVKMHCYMNSASGNVSWLWKQEMDENPQQLKLEKGRMEESQNESLATLTIQGIRFEDNGIYFCQQKCNNTSEVYQGCGTELRVMGFSTLAQLKQRNTLKDGIIMIQTLLIILFIIVPIFLLLDKDDSKAGMEEDHTYEGLDIDQTATYEDIVTLRTGEVKWSVGEHPGQE
notes: CD79b (Igβ), signalling subunit of the B cell receptor, human, endogenous in the Raji B lymphoblastoid cell line; also called Igβ; Ig-beta; source: endogenous, Raji cells, membrane fraction solubilised in Triton X-100 or DOC lysis buffer
For B1, in the assay with CD79a, the “fold enrichment in the bead eluate over input (band intensity normalised to protein load)” value is roughly 12 fold.
